Measurements published in patent US20250163186A1 (PHYLAXIS BIOSCIENCE, published 2025).
Like-named read-outs stand apart in the source and are kept apart here.

Key:
[1] = molecular target: human IgE pre-complexed to FCER1A on the surface of human mast cells (human, UniProt P01854-1 1-428); test: flow cytometry on IgE-loaded human mast cells
[2] = molecular target: recombinant human anti-hapten dinitrophenol (DNP) IgE (rhIgE) (human, UniProt P01854-1 1-428); test: cell-based or functional assay
[3] = molecular target: T1, human IgE (human, UniProt P01854 1-428); test: ELISA, blocks binding of 5 nM IgE to coated FCER1A
T1 construct: written under the same molecule; also called IgE (Abcam ab65866); soluble IgE
T1 sequence (P01854 other isoform, or with tags, fused parts or gaps limits assumed, form in doubt): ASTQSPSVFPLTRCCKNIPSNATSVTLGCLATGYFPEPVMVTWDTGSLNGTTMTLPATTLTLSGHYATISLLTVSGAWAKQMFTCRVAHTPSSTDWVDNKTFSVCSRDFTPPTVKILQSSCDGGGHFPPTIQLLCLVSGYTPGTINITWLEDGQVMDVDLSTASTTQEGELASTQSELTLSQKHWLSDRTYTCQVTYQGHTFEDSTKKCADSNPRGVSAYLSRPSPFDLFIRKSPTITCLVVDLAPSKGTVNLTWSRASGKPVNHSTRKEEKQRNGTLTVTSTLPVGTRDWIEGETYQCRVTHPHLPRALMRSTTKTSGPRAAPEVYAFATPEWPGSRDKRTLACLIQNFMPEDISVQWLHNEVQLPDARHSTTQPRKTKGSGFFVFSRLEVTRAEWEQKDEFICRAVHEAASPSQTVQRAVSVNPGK
Description: (§1) The following day, plates were blocked with 1% BSA in PBS for 30 min-1 hour. […] Afterwards, the plates were PBST washed with the plate washer and detected with Peroxidase AffiniPure Donkey Anti-Human IgG, Fcγ fragment specific secondary detection antibody. Room temperature TMB was added and OD650 was measured using the Emax plate reader. […] Room temperature TMB was added and OD650 was measured using the Emax plate reader. The data was plotted and analyzed using GraphPad Prism analysis software.

[4] = molecular target: T2, human IgE pre-complexed to FceRII/CD23 on the surface of RPMI 8866 cells (human, UniProt P01854 1-428; P06734 1-321); test: flow cytometry, IgE-loaded RPMI 8866 cells
T2 construct: also called IgE:CD23 complexes; IgE in complex with CD23
T2 sequence (P01854 other isoform, or with tags, fused parts or gaps, chain 1 of 2): as the sequence (P01854 other isoform, or with tags, fused parts or gaps limits assumed, form in doubt) above
T2 sequence (P06734 whole entry, chain 2 of 2): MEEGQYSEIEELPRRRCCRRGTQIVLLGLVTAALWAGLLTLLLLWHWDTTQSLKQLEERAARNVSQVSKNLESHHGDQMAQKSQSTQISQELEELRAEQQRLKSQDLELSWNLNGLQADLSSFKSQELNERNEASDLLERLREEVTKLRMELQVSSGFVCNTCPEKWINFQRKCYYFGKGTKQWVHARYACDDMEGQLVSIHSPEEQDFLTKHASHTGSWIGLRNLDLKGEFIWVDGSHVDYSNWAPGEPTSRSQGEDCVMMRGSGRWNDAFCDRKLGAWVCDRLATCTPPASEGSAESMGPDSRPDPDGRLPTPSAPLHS
Description: The washed cells were diluted to 0.8×10⁶ cells/mL. 50 μL of this cell suspension was then transferred to wells of a round-bottom 96-well assay plate (40 k cells/well). 50 μL of titrated test articles (diluted to 1 μM and titrated across 1:3 in FACS buffer) were added to the RPMI 8866 cells which produced a 2-fold dilution of the antibody concentrations from the titration series. The final starting concentration was 500 nM with a total of 11 points in the titration. […] The cells were incubated with secondary detection antibodies for 20 minutes then washed once, resuspended in 60 μL of FACS Buffer, and analyzed on a NovoCyte 3000 flow cytometer (ACEA Biosciences, Inc.).

[5] = molecular target: T1, human IgE; test: ELISA, plate-coated IgE, apparent Kd (one site fit)
Excerpt: The data was plotted and analyzed using GraphPad Prism analysis software.

[6] = molecular target: T1, human IgE; test: as above; remark: listed apart in the source
[7] = molecular target: T3, recombinant human FCER1A-His (ACRO FCA-H5228) (human, UniProt P12319 26-205); test: SPR, antibody alone injected over captured FCER1A
T3 construct: Bought protein; also called FceRIA; IgE receptor
T3 sequence: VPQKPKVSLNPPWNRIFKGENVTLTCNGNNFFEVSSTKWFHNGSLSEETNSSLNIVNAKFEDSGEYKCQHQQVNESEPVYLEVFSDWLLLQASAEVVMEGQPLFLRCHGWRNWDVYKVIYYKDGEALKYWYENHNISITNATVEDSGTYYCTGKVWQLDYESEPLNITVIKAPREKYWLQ
Description: (§2) All experiments were done using a Biacore T200 instrument with a CM5 chip at 25° C., Flow Cell (FC) 1 was used as the reference for FC2, and FC3 for FC4.
(§3) Anti-His antibody (1 mg/ml stock) was diluted (1:100 dilution, 0.01 mg/ml diluted concentration) in 10 mM sodium acetate buffer at pH 4.5 and immobilized onto FCs 1 and 2 to a level of ˜14000 RU, using the standard amine coupling chemistry. […] FCER1A (0.4 mg/ml stock concentration) was diluted ([…], ˜0.004 mg/ml diluted concentration) in PBS-P captured onto FC2 to levels of ˜130 RU. PBS-P was used as the capture running buffer. Overnight kinetics were performed for all analytes in the presence of PBS-P. The flow rate of all analyte solutions was maintained at 50 μL/min. The contact and dissociation times used were 120 seconds and 300 seconds, respectively. Glycine pH 1.5 was injected for 20 seconds for surface regeneration. This regeneration condition takes away all captured FCER1A. Therefore, fresh FCER1A was captured in the beginning of each injection cycle. […] All analytes were injected in duplicate. […] Sensorgrams from the overnight kinetics were plotted for further evaluation.

[8] = molecular target: T1, human IgE; test: ELISA, plate-coated IgE
[9] = molecular target: T1, human IgE; test: ELISA, human IgE coated
Description: as §1

[10] = molecular target: T4, chimeric cynomolgus monkey IgE (cynomolgus monkey (Macaca fascicularis)); test: ELISA, plate-coated cynomolgus IgE, apparent Kd (one site fit)
T4 construct: domain: CH1-4 constant domains; Generated in house in place of commercial cynomolgus IgE; also called cyno IgE

[11] = molecular target: T1, human IgE; test: ELISA, blocks binding of 5 nM IgE to coated FCER1A; remark: listed apart in the source
Description: as §1

[12] = molecular target: T1, human IgE; test: SPR, blocks binding of 5 nM IgE to captured FCER1A
Description: (§4) All experiments were done using a Biacore T200 instrument with a CM5 chip at 37° C. except immobilization of Protein L, which was done at 25° C.
Sensorgrams from the overnight kinetics were plotted for further evaluation.

[13] = molecular target: T1, human IgE; test: ELISA, blocks binding of 5 nM IgE to coated FCER2/CD23
Description: as §1

[14] = molecular target: human IgG2 (Athensresearch, 16-16-090707-2) (human, UniProt P01859-1 1-326 = IgG part); test: ELISA, human IgG2 coated
[15] = molecular target: T1, human IgE; test: SPR, blocks binding of 5 nM IgE to captured FCER1A; remark: listed apart in the source
Description: as §2, §3

[16] = molecular target: T1, human IgE; test: ELISA, human IgE coated; remark: listed apart in the source
Description: as §1

[17] = molecular target: T1, human IgE; test: ELISA, plate-coated IgE; remark: listed apart in the source
[18] = molecular target: T1, human IgE; test: SPR (Biacore T200, 37 C), IgE low density (~14 RU) on protein L, 1:1 fit
Description: as §4
(§5) For this study Flow Cell (FC) 1 was used as the reference for FC2, FC3 and FC4. Protein L (15 mg/ml stock concentration) was diluted (1:50 dilution, 0.3 mg/ml diluted concentration) in 10 mM sodium acetate buffer at pH 4.5 and immobilized onto all FCs to a level of ˜14000 RU, using the standard amine coupling chemistry. HBS-P (10 mM Hepes, pH 7.4, 150 mM NaCl, 0.05% v/v surfactant P20) was used as the immobilization running buffer. […] HBS-P was used as the capture running buffer. Overnight kinetics were performed for all analytes in the presence of HBS-P. The flow rate of all analyte solutions was maintained at 50 μL/min. The contact and dissociation times used were 120 seconds and 600 seconds, respectively. Glycine pH 1.5 was injected for 20 seconds for surface regeneration. This regeneration condition takes away all captured ligand. Therefore, fresh ligand solution was captured in the beginning of each injection cycle. Injected analyte concentrations are from 80 nM to 0.01953 nM (four-fold dilutions). All analytes were injected in duplicate.

[19] = molecular target: human IgM (Novus, NBP1-97056) (human, UniProt P01871-1 1-453); test: ELISA, plate-coated immunoglobulin
Sequence of human IgM (Novus, NBP1-97056) (P01871 other isoform, or with tags, fused parts or gaps): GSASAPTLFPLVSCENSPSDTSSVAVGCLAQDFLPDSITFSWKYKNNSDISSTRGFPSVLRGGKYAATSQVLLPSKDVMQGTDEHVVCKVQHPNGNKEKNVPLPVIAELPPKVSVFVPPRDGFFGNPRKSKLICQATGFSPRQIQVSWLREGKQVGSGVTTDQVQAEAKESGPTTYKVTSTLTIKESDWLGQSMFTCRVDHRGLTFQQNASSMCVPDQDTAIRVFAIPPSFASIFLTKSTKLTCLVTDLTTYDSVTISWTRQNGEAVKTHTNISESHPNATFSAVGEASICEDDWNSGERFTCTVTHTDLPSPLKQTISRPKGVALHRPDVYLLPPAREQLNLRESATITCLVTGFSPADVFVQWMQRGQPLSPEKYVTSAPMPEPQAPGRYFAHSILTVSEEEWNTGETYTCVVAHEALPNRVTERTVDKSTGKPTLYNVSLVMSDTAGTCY

[20] = molecular target: T1, human IgE; test: SPR (Biacore T200, 37 C), IgE high density (~1400 RU) on protein L, 1:1 fit
Description: as §4, §5

[21] = molecular target: T1, human IgE; test: SPR (Biacore T200, 37 C), IgE medium density (~114 RU) on protein L, 1:1 fit
Description: as §4, §5

[22] = molecular target: T1, human IgE; test: flow cytometry, blocks binding of 5 nM IgE to FCER1A on human mast cells

Sequence of recombinant human anti-hapten dinitrophenol (DNP) IgE (rhIgE) (P01854 other isoform, or with tags, fused parts or gaps): as the sequence (P01854 other isoform, or with tags, fused parts or gaps limits assumed, form in doubt) above
Sequence of human IgE pre-complexed to FCER1A on the surface of human mast cells (P01854 other isoform, or with tags, fused parts or gaps): as the sequence (P01854 other isoform, or with tags, fused parts or gaps limits assumed, form in doubt) above

B1: cx10710, comprising IgG1 SELF Fc (antibody, V domains shown)
VH: QVQLQESGPGLVKPSETLSLTCAVSGYSITSGYSWNWIRQPPGKKLEWIGSITYDGSSNYNPSLKSRVTISRDTSKNQFSLKLSSVTAADTAVYYCARGSHYFGHWHFAVWGAGTLVTVSS
VL: DIQLTQSPSSLSASVGDRVTITCRASQSVDYDGDSYMNWYQQKPGQPPKLLIYAASYLGSEIPARFSGSGSGTDFTLTISSLQPEDFATYYCQQSHEDPYTFGAGTKLEIKR
notes: Conventional full length anti-IgE antibody with IgG1 SELF Fc; also called conventional antibody comparator; 710 (a derivative of Omalizumab); copies: 2 + 2
binding result [1]: no binding (tested: titrated from 1000 nM) | Activation IC50 (nM), CD63 on mast cells [2]: 1.93 nM | IC50 [3]: 2.71 nM | Bmax [4]: 15000 Mean APC-A | Kd [4]: 6.17 nM | Kd [5]: 0.102 nM | Kd [6]: 0.127 nM | binding result [7]: no binding (tested: 200 nM) | Bmax (OD 650 nm) [8]: 0.814 OD 650 nm | Bmax [9]: 1.2 OD 650 | Kd [9]: 0.123 nM | Kd [10]: 0.288 nM | IC50 [11]: 5.59 nM | IC50 [12]: ~3.2 nM | IC50 [13]: 0.604 nM | binding result [14]: no binding (tested: 250 nM) | IC50 [15]: ~2.1 nM | Bmax [16]: 0.95 OD 650 | Kd [16]: 0.0585 nM | Bmax (OD 650 nm) [17]: 0.946 OD 650 nm

B2: hzB10v40-IgG1 DSELF Fc region (cx13032) (Fc fusion)
chain: EVQLLESGGGEVQPGGSLRLSCVASGLTFSSYNMGWLRQAPGKEREFVGLSGSSSTSTYYAESVKGRFTISRDNAKNTVYLQMTSLRAEDTAVYYCAARRLLSTYWSDRSWDFWGQGTLVTVEPGGGGDKTHTCPPCPAPELLDGPSVFLFPPKPKDTLMISRTPEVTCVVVDVEHEDPEVKFNWYVDGVEVHNAKTKPREEQYNSTYRVVSVLTVLHQDWLNGKEYKCKVSNKAFPAPIEKTISKAKGQPREPQVYTLPPSREEMTKNQVSLTCLVKGFYPSDIAVEWESNGQPENNYKTTPPVLDSDGSFFLYSKLTVDKSRWQQGNVFSCSVMHEALHNHYTQKSLSLSPGK
notes: hzB10v40 VHH + GGGG linker + IgG1 DSELF Fc; described as bivalent; also called hzB10v40-DSELF; hzB10v40-IgG DSELF Fc
Kd [18]: 0.6 nM | koff [18]: 0.000449 s⁻¹ | kon [18]: 422000 M⁻¹ s⁻¹ | binding result [1]: no binding (tested: titrated from 1000 nM) | Activation IC50 (nM), CD63 on mast cells [2]: 3.09 nM | Kd [6]: 0.266 nM | binding result [19]: no binding | Kd [20]: 1.1 nM | koff [20]: 0.000258 s⁻¹ | kon [20]: 242000 M⁻¹ s⁻¹ | Kd [21]: 0.6 nM | koff [21]: 0.000207 s⁻¹ | kon [21]: 373000 M⁻¹ s⁻¹ | IC50 [11]: 7.63 nM | IC50 [12]: ~3.4 nM | IC50 [22]: 0.61 nM | Bmax [16]: 0.808 OD 650 | Kd [16]: 0.11 nM | Bmax (OD 650 nm) [17]: 0.873 OD 650 nm
